One may read the stoichiometry N as the number of molecules, sites or subunits per partner or assembly.

The target in data set [1] is T1, ryanodine receptor type 1 (RyR1), endogenous, purified from mouse skeletal muscle (mouse, UniProt E9PZQ0 1-5035). The data set is described as follows: pull-down.
For data set [2], the target named is T1, ryanodine receptor type 1 (RyR1), …. The data set is described as follows: cryo-EM structure.
The data set “cryo-EM structure” concerns the molecule itself. The data set can be described thus: cryo-EM structure.

T1 sequence (E9PZQ0 whole entry): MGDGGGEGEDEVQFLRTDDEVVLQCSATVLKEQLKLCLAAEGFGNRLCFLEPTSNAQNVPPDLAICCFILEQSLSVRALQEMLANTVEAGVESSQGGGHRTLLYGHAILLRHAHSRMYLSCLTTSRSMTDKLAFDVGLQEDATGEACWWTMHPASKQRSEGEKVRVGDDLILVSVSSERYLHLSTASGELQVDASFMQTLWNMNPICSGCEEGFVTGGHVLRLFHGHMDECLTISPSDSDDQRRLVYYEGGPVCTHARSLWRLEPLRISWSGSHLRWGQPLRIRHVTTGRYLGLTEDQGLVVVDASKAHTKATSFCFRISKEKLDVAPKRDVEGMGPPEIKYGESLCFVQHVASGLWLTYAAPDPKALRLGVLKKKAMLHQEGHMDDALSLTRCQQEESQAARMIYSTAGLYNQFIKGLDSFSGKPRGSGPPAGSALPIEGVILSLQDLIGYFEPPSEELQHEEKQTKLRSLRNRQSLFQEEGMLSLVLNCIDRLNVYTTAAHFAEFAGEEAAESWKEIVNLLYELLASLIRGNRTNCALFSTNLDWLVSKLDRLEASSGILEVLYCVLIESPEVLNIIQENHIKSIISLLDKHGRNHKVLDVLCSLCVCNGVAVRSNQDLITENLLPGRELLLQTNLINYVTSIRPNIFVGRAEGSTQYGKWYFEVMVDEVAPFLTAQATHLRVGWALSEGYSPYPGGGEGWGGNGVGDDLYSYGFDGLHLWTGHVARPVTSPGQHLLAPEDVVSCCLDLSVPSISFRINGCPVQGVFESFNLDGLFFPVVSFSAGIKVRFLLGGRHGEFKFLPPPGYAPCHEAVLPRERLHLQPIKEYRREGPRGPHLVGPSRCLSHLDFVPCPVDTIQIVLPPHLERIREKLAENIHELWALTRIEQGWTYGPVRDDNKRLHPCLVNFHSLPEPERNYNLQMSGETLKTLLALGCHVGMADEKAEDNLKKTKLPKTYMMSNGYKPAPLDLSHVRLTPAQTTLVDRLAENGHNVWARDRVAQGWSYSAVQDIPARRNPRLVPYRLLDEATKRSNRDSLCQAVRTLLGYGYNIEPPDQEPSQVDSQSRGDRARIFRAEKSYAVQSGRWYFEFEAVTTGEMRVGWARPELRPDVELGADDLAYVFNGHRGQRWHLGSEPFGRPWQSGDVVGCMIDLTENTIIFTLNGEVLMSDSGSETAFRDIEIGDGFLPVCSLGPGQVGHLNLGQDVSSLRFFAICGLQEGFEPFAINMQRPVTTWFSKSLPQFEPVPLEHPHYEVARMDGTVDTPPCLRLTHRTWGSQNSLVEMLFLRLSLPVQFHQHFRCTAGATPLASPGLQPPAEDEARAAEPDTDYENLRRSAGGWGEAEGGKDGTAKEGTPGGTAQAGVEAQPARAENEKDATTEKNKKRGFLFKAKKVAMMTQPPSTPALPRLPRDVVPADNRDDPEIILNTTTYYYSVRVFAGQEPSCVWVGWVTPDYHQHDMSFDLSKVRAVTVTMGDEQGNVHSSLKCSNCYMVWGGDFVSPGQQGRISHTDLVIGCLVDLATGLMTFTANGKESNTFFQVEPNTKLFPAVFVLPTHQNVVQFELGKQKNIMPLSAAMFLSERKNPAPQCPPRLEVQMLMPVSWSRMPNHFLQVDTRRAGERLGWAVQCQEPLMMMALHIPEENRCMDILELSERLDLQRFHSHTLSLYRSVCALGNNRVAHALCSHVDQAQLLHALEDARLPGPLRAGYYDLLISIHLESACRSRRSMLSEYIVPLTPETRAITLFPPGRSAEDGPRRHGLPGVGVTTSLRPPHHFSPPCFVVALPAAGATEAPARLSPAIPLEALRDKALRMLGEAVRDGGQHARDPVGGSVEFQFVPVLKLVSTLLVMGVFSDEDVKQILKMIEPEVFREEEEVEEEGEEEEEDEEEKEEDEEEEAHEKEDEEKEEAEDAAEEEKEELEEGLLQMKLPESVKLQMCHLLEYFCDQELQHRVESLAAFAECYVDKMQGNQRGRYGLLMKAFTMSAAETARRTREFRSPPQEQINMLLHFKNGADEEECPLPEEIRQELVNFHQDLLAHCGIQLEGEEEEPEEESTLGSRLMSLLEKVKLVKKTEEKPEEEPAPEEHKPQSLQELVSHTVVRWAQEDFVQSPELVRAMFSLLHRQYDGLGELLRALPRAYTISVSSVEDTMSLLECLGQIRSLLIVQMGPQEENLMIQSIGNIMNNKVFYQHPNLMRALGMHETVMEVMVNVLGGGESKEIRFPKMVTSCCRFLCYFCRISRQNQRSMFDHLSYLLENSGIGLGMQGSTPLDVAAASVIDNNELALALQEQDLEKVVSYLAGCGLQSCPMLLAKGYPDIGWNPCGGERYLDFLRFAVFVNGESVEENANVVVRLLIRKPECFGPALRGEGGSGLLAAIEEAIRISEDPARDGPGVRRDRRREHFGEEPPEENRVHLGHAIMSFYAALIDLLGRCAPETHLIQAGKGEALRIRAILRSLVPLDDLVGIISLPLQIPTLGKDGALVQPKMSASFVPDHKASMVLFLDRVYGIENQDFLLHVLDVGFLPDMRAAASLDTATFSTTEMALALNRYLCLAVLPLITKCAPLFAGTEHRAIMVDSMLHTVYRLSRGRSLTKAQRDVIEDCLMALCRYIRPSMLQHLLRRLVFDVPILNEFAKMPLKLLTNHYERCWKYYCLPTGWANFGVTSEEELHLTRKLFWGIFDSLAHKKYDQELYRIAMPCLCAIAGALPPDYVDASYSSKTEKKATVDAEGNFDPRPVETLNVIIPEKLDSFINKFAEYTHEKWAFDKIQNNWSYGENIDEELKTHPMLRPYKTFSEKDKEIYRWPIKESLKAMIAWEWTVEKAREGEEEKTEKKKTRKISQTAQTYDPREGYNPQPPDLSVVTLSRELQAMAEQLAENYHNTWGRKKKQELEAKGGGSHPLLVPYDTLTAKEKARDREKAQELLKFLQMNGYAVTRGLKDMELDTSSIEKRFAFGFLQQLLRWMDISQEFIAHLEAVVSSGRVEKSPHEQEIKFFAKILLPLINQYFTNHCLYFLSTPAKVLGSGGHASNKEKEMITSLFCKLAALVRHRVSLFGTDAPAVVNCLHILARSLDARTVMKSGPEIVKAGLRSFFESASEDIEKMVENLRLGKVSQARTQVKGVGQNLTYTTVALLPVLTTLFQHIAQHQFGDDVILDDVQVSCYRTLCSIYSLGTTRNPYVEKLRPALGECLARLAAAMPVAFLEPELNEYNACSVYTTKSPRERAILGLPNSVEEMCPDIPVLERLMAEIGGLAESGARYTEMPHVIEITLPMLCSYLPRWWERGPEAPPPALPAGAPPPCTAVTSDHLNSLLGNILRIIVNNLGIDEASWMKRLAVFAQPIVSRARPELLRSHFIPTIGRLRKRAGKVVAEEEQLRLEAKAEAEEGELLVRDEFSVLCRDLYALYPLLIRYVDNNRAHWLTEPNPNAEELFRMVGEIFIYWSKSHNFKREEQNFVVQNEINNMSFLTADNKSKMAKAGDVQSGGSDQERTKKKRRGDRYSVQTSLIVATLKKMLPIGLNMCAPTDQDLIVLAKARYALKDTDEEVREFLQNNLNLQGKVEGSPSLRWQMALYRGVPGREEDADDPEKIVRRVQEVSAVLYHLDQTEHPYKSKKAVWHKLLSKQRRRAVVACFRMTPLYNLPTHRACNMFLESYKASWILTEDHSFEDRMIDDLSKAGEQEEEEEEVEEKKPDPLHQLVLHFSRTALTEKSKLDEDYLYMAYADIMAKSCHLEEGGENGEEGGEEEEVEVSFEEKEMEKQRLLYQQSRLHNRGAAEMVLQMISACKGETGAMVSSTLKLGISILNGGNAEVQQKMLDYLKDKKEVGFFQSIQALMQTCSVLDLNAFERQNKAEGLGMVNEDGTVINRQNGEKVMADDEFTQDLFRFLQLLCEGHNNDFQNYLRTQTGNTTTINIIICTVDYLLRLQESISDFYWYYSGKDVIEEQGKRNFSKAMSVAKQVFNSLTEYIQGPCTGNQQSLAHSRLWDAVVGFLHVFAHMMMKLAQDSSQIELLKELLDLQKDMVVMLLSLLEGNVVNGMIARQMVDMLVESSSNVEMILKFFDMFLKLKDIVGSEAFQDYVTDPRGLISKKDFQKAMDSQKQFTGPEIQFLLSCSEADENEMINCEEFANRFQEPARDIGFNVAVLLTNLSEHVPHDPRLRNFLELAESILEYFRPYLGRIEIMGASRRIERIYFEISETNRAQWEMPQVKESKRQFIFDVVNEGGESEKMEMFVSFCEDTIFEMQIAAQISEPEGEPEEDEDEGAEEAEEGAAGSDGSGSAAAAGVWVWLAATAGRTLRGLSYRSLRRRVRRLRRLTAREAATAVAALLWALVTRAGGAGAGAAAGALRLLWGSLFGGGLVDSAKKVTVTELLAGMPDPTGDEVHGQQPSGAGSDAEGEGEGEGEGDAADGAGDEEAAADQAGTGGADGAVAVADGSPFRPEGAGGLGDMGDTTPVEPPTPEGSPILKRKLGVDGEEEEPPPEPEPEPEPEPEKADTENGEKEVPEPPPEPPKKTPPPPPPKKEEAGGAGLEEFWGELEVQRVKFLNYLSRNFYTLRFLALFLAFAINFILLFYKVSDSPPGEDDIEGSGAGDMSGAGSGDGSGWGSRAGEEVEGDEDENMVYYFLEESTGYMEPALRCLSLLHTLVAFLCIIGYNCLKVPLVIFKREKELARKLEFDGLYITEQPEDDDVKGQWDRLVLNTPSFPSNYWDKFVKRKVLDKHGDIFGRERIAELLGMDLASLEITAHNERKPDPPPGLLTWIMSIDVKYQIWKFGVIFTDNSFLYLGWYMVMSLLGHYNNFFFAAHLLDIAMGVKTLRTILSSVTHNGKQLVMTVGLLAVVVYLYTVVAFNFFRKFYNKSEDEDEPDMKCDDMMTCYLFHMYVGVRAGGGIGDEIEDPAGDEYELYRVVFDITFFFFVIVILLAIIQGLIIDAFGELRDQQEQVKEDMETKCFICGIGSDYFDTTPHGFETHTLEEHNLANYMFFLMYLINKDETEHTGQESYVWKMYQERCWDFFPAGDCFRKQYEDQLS

B1: GST-tagged S100A1 (natural protein)
chain: MGSELESAMETLINVFHAHSGQEGDKYKLSKKELKDLLQTELSGFLDVQKDADAVDKVMKELDENGDGEVDFKEYVVLVAALTVACNNFFWETS
As for B1, the binding result in data set [1] is on record as “binds”.

B2: recombinant mouse S100A1 (untagged) (natural protein)
chain: MGSELESAMETLINVFHAHSGQEGDKYKLSKKELKDLLQTELSGFLDVQKDADAVDKVMKELDENGDGEVDFKEYVVLVAALTVACNNFFWETS
Regarding B2, in data set [2], the binding result is given as “binds”. Moreover, in “cryo-EM structure”, the “stoichiometry N” value turned out to be 2.
